Target: Trypanosoma cruzi uridine phosphorylase (Trypanosoma cruzi)
Test: SEC

stoichiometry N: 2
Substance: Trypanosoma cruzi uridine phosphorylase (enzyme)

From PMC3124080
